Measured values: patent publication US20140234872A1 (University of California, published 2014)
One block for each binder: values may come before it.

Experiments:
His-Gαi3 = experiment: cell-based or functional assay
GST (alone) [1] = target: T1, GST (alone) (UniProt P08515 1-218 = GST); experiment: GST pulldown, GIV-CT pAb blot (FIG. 20B)
T1 construct: Negative control on glutathione beads
Protocol: Equal aliquots (˜3 μg) of His-GIV-CT were incubated with ˜30 ug of GST and ˜25 μg GST-SHP-1 immobilized on glutathione beads. Bound His-GIV-CT was analyzed by immunoblotting (IB) with GIV-CT pAb. Relative amounts of bead-bound GST and GST-SHP-1 were confirmed by ponceau S staining. (B) His-GIV-CT preferentially binds the C-terminal SH2 domain of SHP-1. Equal aliquots (˜3 μg) of His-GIV-CT were incubated with ˜30 μg GST, wild-type GST-SHP-1, GST-SHP-1 lacking both SH2 domains (ΔN+CSH2), and GST-SHP-1 lacking only the N-terminal SH2 domain (ΔNSH2). Bound His-GIV-CT was analyzed by immunoblotting (IB) with GIV-CT pAb. His-GIV-CT specifically bound wild-type GST-SHP-1, but not GST alone (lanes 3, 4); binding was reduced in the absence of both SH2 domains (lane 5), but restored when the C-terminal SH2 domain was present (lane 6).
To determine if the GIV-SHP-1 interaction observed in vivo is direct, in vitro binding assays were carried out using recombinant His-GIV-CT and GST or GST-SHP-1 immobilized on glutathione beads. […] Because SHP-1 is recruited to its substrates by one or both of its in-tandem SH2 domains (30), whether the SH2 domains, and if so, which one (NSH2 or CSH2) is responsible for mediating the direct interaction of SHP-1 with GIV's C-terminus was assessed. […]

GST (alone) [2] = target: T1, GST (alone); experiment: GST pulldown with a panel of GST-tagged SH2 adaptors (FIG. 4A)
Protocol: FIG. 4 illustrates that GIV interacts with p85α via its phosphorylated C-terminus. […] Mock-treated GIV-CT and in vitro EGFR-phosphorylated pY GIV-CT were incubated with ˜35 μg of the indicated GST-SH2 adaptors or GST immobilized on glutathione beads. Bound His-GIV-CT was analyzed by immunoblotting (IB) with anti-His mAb. pY GIV-CT, but not GIV-CT specifically bound the C-terminal SH2 domain of p85α (lane 3), and weakly to the N-terminal SH2 domain of p85α (lane 2). […] Mock-treated GIV-CT and in vitro EGFR or Src-phosphorylated (pY GIV-CT) His-GIV-CT were incubated with ˜35 μg of GST-p85α-CSH2 adaptor or GST immobilized on glutathione beads. Bound His-GIV CT was analyzed by immunoblotting (IB) with anti-His mAb. GIV CT bound p85α-CSH2 exclusively after phosphorylation by EGFR and Src-kinases (lanes 3, 4), but not when sham-treated (lane 2). […] HeLa cells were starved (0 min), and subsequently stimulated with EGF for indicated time periods prior to lysis. Equal aliquots of lysates (bottom) were incubated with anti-GIV (CT Ab; lanes 1-3) or a mix (M) of them was incubated with pre-immune IgG Immune complexes (top) were analyzed for the presence of endogenous GIV, phosphotyrosine (pTyr) and p85α by immunoblotting (IB). […] Equal aliquots of lysates (bottom) were treated with anti-GIVCT Ab or preimmune IgG Immunoprecipitated complexes (top) were analyzed for GIV and p85α by immunoblotting (IB). […]

[3] = target: endogenous SHP-1 of HEK cells (UniProt P29350 1-595); experiment: anti-SHP-1 co-immunoprecipitation from HEK lysates (FIG. 26)
Protocol: Equal aliquots of HEK lysates (bottom) were incubated with either rabbit preimmune (lane 1) or anti-SHP-1 (lane 2) IgGs, and protein A agarose beads. Lysates and immune complexes (top) were analyzed for GIV, SHP-1, and Gαi3 by immunoblotting (IB). SHP-1 was immunoprecipitated efficiently and specifically by anti-SHP-1 (lane 2), but not control (lane 1) IgG. GIV, but not Gαi3 was detected in SHP-1-bound protein complexes (lane 2).

T1 sequence (P08515 whole entry): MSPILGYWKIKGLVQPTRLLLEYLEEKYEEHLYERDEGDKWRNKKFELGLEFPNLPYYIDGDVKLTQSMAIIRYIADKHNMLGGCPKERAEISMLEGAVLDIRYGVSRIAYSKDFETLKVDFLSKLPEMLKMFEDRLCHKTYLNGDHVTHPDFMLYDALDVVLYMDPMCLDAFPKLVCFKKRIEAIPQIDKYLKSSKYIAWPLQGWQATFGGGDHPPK
endogenous SHP-1 of HEK cells, sequence (P29350 whole entry): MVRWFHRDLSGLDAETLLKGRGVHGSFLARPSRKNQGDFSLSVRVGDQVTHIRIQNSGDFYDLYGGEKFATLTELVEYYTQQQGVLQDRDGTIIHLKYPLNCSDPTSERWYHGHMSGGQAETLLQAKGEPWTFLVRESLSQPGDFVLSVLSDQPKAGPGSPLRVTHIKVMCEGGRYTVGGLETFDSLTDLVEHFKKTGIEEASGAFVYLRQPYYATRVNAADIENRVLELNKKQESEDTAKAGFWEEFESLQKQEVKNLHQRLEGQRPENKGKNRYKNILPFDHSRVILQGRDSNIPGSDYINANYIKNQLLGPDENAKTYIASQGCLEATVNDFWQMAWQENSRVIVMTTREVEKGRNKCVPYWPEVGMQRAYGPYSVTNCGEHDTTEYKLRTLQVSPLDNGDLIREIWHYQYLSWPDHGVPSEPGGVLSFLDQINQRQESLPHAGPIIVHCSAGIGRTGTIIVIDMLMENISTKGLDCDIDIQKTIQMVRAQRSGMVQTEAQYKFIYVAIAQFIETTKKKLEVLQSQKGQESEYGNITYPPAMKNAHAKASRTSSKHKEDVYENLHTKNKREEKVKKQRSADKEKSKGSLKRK

steady-state GTPase activity of His-Gαi3 (His-Gαi3): ~1.7 fold over the basal activity
B1: His-GIV-CT (aa 1660-1870), wild-type, not phosphorylated (mock- or sham-treated) (other)
chain: SETLESRHHKIKTGSPGSEVVTLQQFLEESNKLTSVQIKSSSQENLLDEVMKSLSVSSDFLGKDKPVSCGLARSVSGKTPGDFYDRRTTKPEFLRPGPRKTEDTYFISSAGKPTPGTQGKIKLVKESSLSRQSKDSNPYATLPRASSVISTAEGTTRRTSIHDFLTKDSRLPISVDSPPAAADSNTTAASNVDKVQESRNSKSRSREQQSS
notes: Expressed in E. coli; also called mock-WT; mock-treated GIV-CT; not shown: hexahistidine (6xHis) tag of pET28b
binding result (GST (alone) [1]): no binding (tested: ˜3 µg His-GIV-CT, ˜30 µg GST)

steady-state GTPase activity of His-Gαi3 (His-Gαi3): ~1.7 fold over the basal activity
binding result (GST (alone) [2]): no binding
B2: His-GIV-CT (aa 1660-1870), wild-type, phosphorylated in vitro by recombinant EGFR kinase (other)
chain: B1 chain
modifications: phosphotyrosine at Y1764 and Y1798 (sites found by mass spectrometry after EGFR kinase; EGFR prefers Y1764)
notes: also called pY GIV-CT; pY GIV-CT (EGFR); not shown: hexahistidine (6xHis) tag of pET28b

binding result [3]: no binding
B3: endogenous Gαi3 of HEK cells (other, UniProt P08754 2-354, looked up)
chain: GCTLSAEDKAAVERSKMIDRNLREDGEKAAKEVKLLLLGAGESGKSTIVKQMKIIHEDGYSEDECKQYKVVVYSNTIQSIIAIIRAMGRLKIDFGEAARADDARQLFVLAGSAEEGVMTPELAGVIKRLWRDGGVQACFSRSREYQLNDSASYYLNDLDRISQSNYIPTQQDVLRTRVKTTGIVETHFTFKDLYFKMFDVGGQRSERKKWIHCFEGVTAIIFCVALSDYDLVLAEDEEMNRMHESMKLFDSICNNKWFTETSIILFLNKKDLFEEKIKRSPLTICYPEYTGSNTYEEAAAYIQCQFEDLNRRKDTKEIYTHFTCATDTKNVQFVFDAVTDVIIKNNLKECGLY
